Data published in paper PMC6980381 (Science (New York, N.Y.), 2019).

Target: T1, Npl4 (untagged, of the Ufd1/Npl4 cofactor complex) (S. cerevisiae, UniProt P33755 1-580)
T1 sequence: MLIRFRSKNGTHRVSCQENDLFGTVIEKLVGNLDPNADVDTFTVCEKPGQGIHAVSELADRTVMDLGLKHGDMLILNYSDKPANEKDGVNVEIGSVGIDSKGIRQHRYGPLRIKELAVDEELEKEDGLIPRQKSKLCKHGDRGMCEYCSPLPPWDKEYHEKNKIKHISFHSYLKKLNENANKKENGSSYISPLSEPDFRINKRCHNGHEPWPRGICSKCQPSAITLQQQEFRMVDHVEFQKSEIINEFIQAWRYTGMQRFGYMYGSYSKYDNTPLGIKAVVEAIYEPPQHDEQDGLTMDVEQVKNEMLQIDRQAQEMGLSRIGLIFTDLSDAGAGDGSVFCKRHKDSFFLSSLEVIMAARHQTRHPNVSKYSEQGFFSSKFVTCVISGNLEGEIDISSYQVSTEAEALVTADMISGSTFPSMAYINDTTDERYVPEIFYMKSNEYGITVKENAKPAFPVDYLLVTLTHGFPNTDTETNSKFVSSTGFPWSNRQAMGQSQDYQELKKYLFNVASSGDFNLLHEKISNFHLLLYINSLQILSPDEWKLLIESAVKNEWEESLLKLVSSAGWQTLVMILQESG
Assay: cryo-EM structure

- binding result: binds
B1: Ufd1 (untagged, of the Ufd1/Npl4 cofactor complex) (natural protein, S. cerevisiae, UniProt P53044 1-361, looked up)
chain: MFSGFSSFGGGNGFVNMPQTFEEFFRCYPIAMMNDRIRKDDANFGGKIFLPPSALSKLSMLNIRYPMLFKLTANETGRVTHGGVLEFIAEEGRVYLPQWMMETLGIQPGSLLQISSTDVPLGQFVKLEPQSVDFLDISDPKAVLENVLRNFSTLTVDDVIEISYNGKTFKIKILEVKPESSSKSICVIETDLVTDFAPPVGYVEPDYKALKAQQDKEKKNSFGKGQVLDPSVLGQGSMSTRIDYAGIANSSRNKLSKFVGQGQNISGKAPKAEPKQDIKDMKITFDGEPAKLDLPEGQLFFGFPMVLPKEDEESAAGSKSSEQNFQGQGISLRKSNKRKTKSDHDSSKSKAPKSPEVIEID
